Results from patent US20250145690A1 (US Dept. of Health and Human Services, published 2025).

Experiments:
Test in all cases: bead flow cytometry, AUC minus CD4
[1] = target: T1, HCoV-NL63 spike protein (Sino Biological 40604-V08B) (HCoV-NL63, UniProt Q6Q1S2 19-1296)
T1 sequence: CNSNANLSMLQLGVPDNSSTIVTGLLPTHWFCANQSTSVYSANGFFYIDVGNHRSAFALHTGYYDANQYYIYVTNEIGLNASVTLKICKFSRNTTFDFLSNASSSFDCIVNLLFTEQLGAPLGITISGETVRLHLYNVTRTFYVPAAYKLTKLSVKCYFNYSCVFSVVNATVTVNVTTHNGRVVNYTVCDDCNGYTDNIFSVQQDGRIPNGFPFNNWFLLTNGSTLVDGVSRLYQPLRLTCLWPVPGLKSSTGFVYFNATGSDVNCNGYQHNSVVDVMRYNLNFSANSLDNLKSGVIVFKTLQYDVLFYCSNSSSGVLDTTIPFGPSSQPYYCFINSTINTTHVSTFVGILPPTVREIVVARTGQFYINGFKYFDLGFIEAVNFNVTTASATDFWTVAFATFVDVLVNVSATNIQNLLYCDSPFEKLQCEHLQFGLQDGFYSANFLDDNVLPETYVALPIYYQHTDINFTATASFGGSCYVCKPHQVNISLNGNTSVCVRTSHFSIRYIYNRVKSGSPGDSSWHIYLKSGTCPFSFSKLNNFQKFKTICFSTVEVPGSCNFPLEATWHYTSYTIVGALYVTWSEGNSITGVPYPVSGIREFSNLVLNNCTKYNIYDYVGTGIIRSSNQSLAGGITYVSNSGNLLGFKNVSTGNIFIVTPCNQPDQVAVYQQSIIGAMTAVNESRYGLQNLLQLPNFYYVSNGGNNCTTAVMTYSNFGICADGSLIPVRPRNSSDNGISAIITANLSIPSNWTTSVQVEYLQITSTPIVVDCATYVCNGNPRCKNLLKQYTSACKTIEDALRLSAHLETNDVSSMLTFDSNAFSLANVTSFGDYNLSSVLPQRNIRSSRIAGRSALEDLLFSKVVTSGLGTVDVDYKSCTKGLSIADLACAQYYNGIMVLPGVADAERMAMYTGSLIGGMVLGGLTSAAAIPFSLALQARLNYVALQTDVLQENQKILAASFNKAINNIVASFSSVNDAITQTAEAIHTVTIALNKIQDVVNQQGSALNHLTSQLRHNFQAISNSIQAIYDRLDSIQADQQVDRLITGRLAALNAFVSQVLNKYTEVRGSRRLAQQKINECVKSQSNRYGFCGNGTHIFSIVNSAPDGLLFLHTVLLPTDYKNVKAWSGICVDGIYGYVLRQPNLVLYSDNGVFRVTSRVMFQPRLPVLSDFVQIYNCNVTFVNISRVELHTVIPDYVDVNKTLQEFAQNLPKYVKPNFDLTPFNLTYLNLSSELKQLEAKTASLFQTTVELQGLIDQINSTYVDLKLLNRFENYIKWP

[2] = target: T2, HCoV-229E spike protein (Sino Biological 40605-V08B) (HCoV-229E, UniProt P15423 16-1115)
T2 sequence: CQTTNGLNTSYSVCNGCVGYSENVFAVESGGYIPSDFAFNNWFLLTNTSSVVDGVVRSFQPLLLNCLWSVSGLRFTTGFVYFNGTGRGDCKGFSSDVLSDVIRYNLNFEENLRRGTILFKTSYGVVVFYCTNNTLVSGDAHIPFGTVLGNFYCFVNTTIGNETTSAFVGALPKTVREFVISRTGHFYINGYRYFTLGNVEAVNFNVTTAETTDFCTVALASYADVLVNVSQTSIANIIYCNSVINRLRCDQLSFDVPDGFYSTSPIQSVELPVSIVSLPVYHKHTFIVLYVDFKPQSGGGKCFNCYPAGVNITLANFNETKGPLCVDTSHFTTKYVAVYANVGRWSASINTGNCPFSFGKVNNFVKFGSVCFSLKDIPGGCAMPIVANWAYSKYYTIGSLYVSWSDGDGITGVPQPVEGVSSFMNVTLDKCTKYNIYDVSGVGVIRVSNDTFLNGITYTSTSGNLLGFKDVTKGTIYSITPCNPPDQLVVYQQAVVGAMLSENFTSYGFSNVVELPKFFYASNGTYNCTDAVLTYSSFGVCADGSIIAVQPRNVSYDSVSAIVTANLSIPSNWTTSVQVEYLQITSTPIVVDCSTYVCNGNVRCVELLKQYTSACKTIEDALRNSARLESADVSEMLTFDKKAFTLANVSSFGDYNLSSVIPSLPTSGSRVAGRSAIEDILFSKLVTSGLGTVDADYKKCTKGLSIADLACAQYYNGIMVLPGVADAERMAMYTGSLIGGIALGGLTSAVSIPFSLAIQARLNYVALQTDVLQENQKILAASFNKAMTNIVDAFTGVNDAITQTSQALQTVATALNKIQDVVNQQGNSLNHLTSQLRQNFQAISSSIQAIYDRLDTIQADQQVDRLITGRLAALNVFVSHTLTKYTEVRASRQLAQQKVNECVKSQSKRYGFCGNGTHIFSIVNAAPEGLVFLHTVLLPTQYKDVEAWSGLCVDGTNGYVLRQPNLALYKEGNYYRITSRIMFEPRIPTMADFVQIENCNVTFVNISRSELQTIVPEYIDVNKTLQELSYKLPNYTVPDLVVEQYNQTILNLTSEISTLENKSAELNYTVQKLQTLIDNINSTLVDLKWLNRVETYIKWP

[3] = target: SARS-CoV-2 spike receptor binding domain (RBD), recombinant (SARS-CoV-2, UniProt P0DTC2 319-541)
[4] = target: SARS-CoV-2 spike N-terminal domain (NTD), recombinant (SARS-CoV-2, UniProt P0DTC2 14-305)
[5] = target: T3, MERS-CoV spike protein (MERS-CoV, UniProt K9N5Q8 18-1291)
T3 sequence: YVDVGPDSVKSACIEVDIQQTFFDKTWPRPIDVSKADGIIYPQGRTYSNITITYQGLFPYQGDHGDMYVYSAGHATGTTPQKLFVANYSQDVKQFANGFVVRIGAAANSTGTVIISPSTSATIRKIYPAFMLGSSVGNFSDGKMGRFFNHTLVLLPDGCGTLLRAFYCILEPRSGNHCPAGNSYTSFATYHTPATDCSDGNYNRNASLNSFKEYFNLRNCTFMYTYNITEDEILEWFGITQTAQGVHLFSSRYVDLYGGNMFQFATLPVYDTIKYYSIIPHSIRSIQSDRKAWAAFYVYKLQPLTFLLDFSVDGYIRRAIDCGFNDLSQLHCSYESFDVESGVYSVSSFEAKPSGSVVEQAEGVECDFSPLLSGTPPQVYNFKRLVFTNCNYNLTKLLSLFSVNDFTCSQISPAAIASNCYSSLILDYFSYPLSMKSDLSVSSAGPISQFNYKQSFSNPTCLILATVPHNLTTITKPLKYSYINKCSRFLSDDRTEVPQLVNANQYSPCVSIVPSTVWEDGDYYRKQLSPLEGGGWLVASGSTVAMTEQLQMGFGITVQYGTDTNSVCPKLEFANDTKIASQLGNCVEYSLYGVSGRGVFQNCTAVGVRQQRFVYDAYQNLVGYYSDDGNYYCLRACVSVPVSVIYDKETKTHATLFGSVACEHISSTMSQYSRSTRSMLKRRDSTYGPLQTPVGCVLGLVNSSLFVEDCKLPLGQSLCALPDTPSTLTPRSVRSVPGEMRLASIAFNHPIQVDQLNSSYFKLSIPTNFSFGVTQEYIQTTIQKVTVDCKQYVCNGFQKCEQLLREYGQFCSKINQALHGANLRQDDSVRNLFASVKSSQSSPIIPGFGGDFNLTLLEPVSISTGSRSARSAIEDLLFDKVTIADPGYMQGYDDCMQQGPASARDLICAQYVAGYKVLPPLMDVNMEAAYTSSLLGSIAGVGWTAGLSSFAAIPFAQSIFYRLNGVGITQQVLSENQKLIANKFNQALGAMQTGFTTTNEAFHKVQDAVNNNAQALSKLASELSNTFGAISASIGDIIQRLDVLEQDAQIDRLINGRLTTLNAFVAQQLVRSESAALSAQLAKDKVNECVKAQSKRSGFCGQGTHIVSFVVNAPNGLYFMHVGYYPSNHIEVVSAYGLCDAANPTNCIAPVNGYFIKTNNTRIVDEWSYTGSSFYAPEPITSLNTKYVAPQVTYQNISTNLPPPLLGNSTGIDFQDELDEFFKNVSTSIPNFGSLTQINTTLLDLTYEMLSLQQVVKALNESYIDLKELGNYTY

Measured: binding result

B1: COV93-61 (antibody, V domains shown)
VH: EVQLVQSGAEVKKPGESLKISCKGSGYSFTTFWIGWVRQMPGKGLEWVGVIYPDDSDTRYSPSFQGQVTMSADKSINTAYLQWSSLKASDTAVYYCARRNCDAALCYLGTYDYWGQGTVVTVSS
VL: QSALTQPPSASGSPGQSVTISCTGTISDVGRYDFVSWYQHHPGKAPKLIIYEVTKRPSGVPDRFSGSKSGNTASLTVSGLQAEDEADYYCNSYAGHNNFVIFGGGTKLTVL
not listed: [5]
no binding (tested: 200 µg/mL): all other assays above

B2: COV57-01 (antibody, V domains shown)
VH: QVQLVESGGGVVQPGRSLRLSCTVSGFTFNNYGMHWVRQAPGKGLEWLAVISYEGSKKFYADSLEGRFSISRDSSKNTLYLQMNSLTIEDTAVYFCAKRNSIFWFGEGRKDAFDVWGQGTRVIVSS
VL: DIQLTQSPSSLSASVGDRVTITCRASQTVDNYLNWYQQLPGKAPKLLIHTASTLQSGVPSRFSATSSGTDFTLTISGLQPDDSATYFCQQSYSVPLTFGGGTKVEIKV
no binding (tested: 200 µg/mL): [5] | [1]

B3: COV77-43 (antibody, V domains shown)
VH: QVQLVESGGGVVQPGRSLRLSCSASGFTFSDYGMNWVRQAPGKGLEWVAMIWYDGSNYFYRDSVKGRFAISRDNSKNMVFLQMDNLRAEDTAVYFCARGTHFWSGLSLDAFDMWGQGTVVTVSS
VL: EIVMTQSPLSLPVTPGEPASISCRSSRSLLHYNGHNYLDWYLQKPGQSPQLLIYLGSNRAPGVPDRFSGSGSGTDFTLKISRVEAEDVGVYYCMQALQLNLITFGQGTRLEIK
not listed: [5]
no binding (tested: 200 µg/mL): all other assays above

B4: COV77-76 (antibody, V domains shown)
VH: QVQLQESGPGLVKPSETLSLTCTVSGGSISSFYWSWIRQPPGKRLEWIGYIYYRGSTNYNPSLKSRVTMSVDTSKNQFSLKLSSVTAADTAVYYCARELPNNWLDPWGQGTLVTVSS
VL: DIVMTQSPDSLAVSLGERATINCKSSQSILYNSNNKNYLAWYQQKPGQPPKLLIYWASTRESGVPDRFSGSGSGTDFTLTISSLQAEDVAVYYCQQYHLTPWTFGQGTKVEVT
not listed: [5]
no binding (tested: 200 µg/mL): all other assays above

B5: COV89-03 (antibody, V domains shown)
VH: QVQLQESGPGLVKPSETLSLTCTVSGGSIRSNYWSWIRQPPGKRLEWLGYIYYSGSTNYNPSLKSRVTISVDTSKNQFSLNLSSVTAADTAVYYCVREMPYNWIDPWGQGTLVTVSS
VL: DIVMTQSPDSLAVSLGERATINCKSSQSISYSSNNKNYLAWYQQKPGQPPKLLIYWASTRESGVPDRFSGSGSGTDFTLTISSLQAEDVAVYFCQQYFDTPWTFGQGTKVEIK
not listed: [5]
no binding (tested: 200 µg/mL): all other assays above

B6: COV93-60 (antibody, V domains shown)
VH: QVQLQESGPGLVKPSETLFLTCAVSGGSINSSYWSWIRQPPGKGLEWIGYIYYRGSTNYNPSLKSRVTISVDTSKNQFSLKLNSVTAADTAIYYCARENLWNWFDPWGQGILVTVSS
VL: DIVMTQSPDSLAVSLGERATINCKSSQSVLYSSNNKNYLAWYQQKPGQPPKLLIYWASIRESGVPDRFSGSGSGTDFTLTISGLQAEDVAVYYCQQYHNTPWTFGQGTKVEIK
not listed: [5]
no binding (tested: 200 µg/mL): all other assays above

B7: COV77-46 (antibody, V domains shown)
VH: QVQLQESGPGLVKPSQPLSLTCAVSGDSISSGGNYWSWIRQHPGKGLECIAYFYYTGRTYYNPSLKSRVTISLDTSKNQFSLKVSSVTAADTAVYFCARGRLGHCGGGSCFLDPLDYWGQGSLVTVSS
VL: EIVMTQSPATLSVSPGERATLSCRASERISSNLAWSQHKVGQAPRLLIYGASTRATGIPARFSGSGSGTEFTLTISSLQSEDFAVYYCHQYHNWLLTFGGGTKVEIK
not listed: [5]
no binding (tested: 200 µg/mL): all other assays above
